The source of these data is paper PMC9407390 (Proceedings of the National Academy of Sciences of the …, 2022).

The data set concerns the molecule itself. Nature of the data set: crystal structure.

The term stoichiometry N denotes the number of molecules, sites or subunits per partner or assembly.

B1: soluble C terminus (soluble domain, residues 343 to 882) of Medicago truncatula DMI1 (domain or fragment)
chain: SEVIERNHVLILGWSDKLGSLLKQLAIANKSVGGGVIVVLAEKEKEEMEMDIAKLEFDFMGTSVICRSGSPLILADLKKVSVSKARAIIVLAADENADQSDARALRVVLSLAGVKEGLRGHVVVEMSDLDNEPLVKLVGGELIETVVAHDVIGRLMIQCALQPGLAQIWEDILGFENAEFYIKRWPELDDLLFKDILISFPDAIPCGVKVAADGGKIVINPDDNYVLRDGDEVLVIAEDDDTYAPGPLPEVRKGYFPRIRDPPKYPEKILFCGWRRDIDDMIMVLEAFLAPGSELWMFNEVPEKERERKLAAGELDVFGLENIKLVHREGNAVIRRHLESLPLETFDSILILADESVEDSVAHSDSRSLATLLLIRDIQSRRLPYRDTKSTSLRLSGFSHNSWIREMQQASDKSIIISEILDSRTRNLVSVSRISDYVLSNELVSMALAMVAEDKQINRVLEELFAEEGNEMCIKPAEFYLFDQEELCFYDIMIRGRTRKEIVIGYRLANQERAIINPSEKSVPRKWSLDDVFVVLASGE
B1: the “stoichiometry N” value was 4.
